The target in this experiment is T1, At NF-YB2/NF-YC3 histone fold domain (HFD) dimer (A. thaliana, UniProt Q9FGJ3 24-116; Q9ZVL3 55-148).
T1 construct: Nuclear factor Y subunit B2 (AtNF-YB2), Arabidopsis thaliana, aa 24-116, histone fold domain; Nuclear factor Y subunit C3 (AtNF-YC3), Arabidopsis thaliana, aa 55-148, histone fold domain; Preformed heterodimer; the 6His tag was removed with thrombin before gel filtration; also called AtNF-YB2/AtNF-YC3; HFD subunits; source: E. coli, co-expressed, purified (IMAC, thrombin cleavage, gel …)
T1 sequence (looked up) 1: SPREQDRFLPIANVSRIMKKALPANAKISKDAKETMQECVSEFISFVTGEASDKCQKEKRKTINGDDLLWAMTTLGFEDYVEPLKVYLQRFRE
T1 sequence (looked up) 2: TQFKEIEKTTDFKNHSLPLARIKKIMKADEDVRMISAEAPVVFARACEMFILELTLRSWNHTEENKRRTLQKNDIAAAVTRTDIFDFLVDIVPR
The experiment can be described thus: native gel or EMSA; NF-YA subunit (60-240 nM) with HFD dimer (30 nM) and Cy5-labelled 31 bp CAB2 CCAAT DNA probe (20 nM); 12 mM Tris-HCl pH 8.0, 50 mM NaCl, 50 mM KCl, 5 mM MgCl2, 30 °C 30 min; 6% polyacrylamide, 0.25X TBE; trimer read out as the shifted DNA complex. The note with it: both partners purified.

B1: AtNF-YA2-6His (aa 134-207) (domain or fragment)
chain: not shown
notes: Nuclear factor Y subunit A2 (AtNF-YA2), Arabidopsis thaliana, aa 134-207, evolutionarily conserved domain; source: E. coli, purified (IMAC); not shown: His6, C-terminal, kept
B1: the binding result is recorded as “binds”.

B2: AtNF-YA6-6His (aa 170-237) (domain or fragment)
chain: not shown
notes: Nuclear factor Y subunit A6 (AtNF-YA6), Arabidopsis thaliana, aa 170-237, evolutionarily conserved domain; source: E. coli, purified (IMAC); not shown: His6, C-terminal, kept
Turning to B2, the binding result is recorded as “binds”.

The values are drawn from PMC6843132, “The Plant NF-Y DNA Matrix In Vitro and In Vivo” (Plants, 2019).
